Source: patent US20190177410A1 (Regeneron, published 2019)

Molecular target: T1, full-length human APLNR (hAPLNR) (human, UniProt P35414 1-380)
T1 sequence: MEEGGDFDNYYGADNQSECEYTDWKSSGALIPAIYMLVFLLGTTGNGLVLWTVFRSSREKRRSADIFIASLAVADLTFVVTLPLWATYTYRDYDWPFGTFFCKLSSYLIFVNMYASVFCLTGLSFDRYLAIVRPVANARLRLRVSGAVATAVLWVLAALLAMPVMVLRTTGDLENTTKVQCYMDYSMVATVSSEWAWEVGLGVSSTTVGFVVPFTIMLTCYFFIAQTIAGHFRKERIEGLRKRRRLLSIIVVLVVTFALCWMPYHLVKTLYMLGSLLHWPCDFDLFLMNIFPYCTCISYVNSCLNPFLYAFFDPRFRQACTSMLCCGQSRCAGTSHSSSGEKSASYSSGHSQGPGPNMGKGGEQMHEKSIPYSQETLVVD
Experiment: cell-based or functional assay

B1: H4H9092P (antibody, human IgG4, V domains shown)
VH: EVQLVESGGGLVKPGGSLRLSCAASGITFSNAWMSWVRQAPGKGLEWVGRIKSKVDGGTIDYAAPVKGRFTISRDDSKNTLYLQMNSLKTEDTAVYYCTTGRITMVRGVLGYWGQGTLVTVSS
VL: not shown
B1 was tested, and the “% Inhibition at 100 nM mAb, in the presence of 100 pM Apelin (at 10 uM Forskolin), CRE-luc” value was 5%.
